This note sets out measurements from doi:10.1101/2025.05.20.653754 (bioRxiv, 2025).

A word on the stoichiometry N: it is a count of units in the complex or per binding partner.

The target of data set [1] is full-length Physcomitrium patens DUR3 (PpDUR3) fused with C-terminal GFP (Physcomitrium patens). The data set is described as follows: SEC. On the technique in general: Size exclusion chromatography separates by hydrodynamic size, large species first.
Data set [2] concerns the target full-length maize DUR3 fused with C-terminal GFP (Zea mays L.). Put plainly: SEC.
Data set [3] concerns the target maize DUR3 (ZmDUR3) with a C-terminal Strep-tag (Zea mays L.). Put plainly: cryo-EM structure.
The data set “SEC” deals with the molecule itself. The data set is described as follows: SEC.

Regarding “full-length Physcomitrium patens DUR3 (PpDUR3) fused with C-terminal GFP (natural protein)”, the stoichiometry N in data set [1] was 4. As to “full-length maize DUR3 fused with C-terminal GFP (natural protein)”, the stoichiometry N in data set [2] was found to be 4. “maize DUR3 (ZmDUR3) with a C-terminal Strep-tag (natural protein)” showed a stoichiometry N in data set [3] of 4.

B1: full-length rice DUR3 (OsDUR3) fused with C-terminal GFP (natural protein, Oryza sativa, UniProt Q7XBS0 1-721, looked up)
chain: MASGVCPPAELGFGAEYYSVVNGVCSRAGSYFGGRPVLTQAVGYAVVLGFGAFFALFTSFLVWLEKRYVGSQHTSEWFNTAGRSVKTGLIASVIVSQWTWAATILQSSNVAWQYGVSGPFWYASGATIQVLLFGVMAIEIKRKAPNAHTVCEIVRARWGTPAHLVFLTFCLLTNVIVTAMLLLGGSAVVNALTGVNVYAASFLIPLGVVVYTLAGGLKATFLASYIHSVVVHAVLVVFVFLVYTSSSKLGSPRVVYDRLMAVASAARDCSADLSRNGQACGPVAGNFKGSYLTMLSSGGLVFGIINIVGNFGTVFVDNGYWMSAIAARPSSTHKGYLLGGLVWFAVPFSLATSLGLGALALDLPLTAAEAAKGLVPPATATALMGKSGSVLLLTMLFMAVTSAGSAELVAVSSLCTYDIYRTYLNPGASGKQILRVSRAVVLGFGCFMGVLAVVLNVAGVSLGWMYLAMGVIVGSAVIPIALLLLWSKANAVGAMGGAVSGCALGVAVWLTVAKVQYGRVNLDTTGRNAPMLAGNLVSILVGGAVHAACSLLRPQHYDWGTSREMITTVESVHAALDDELKEERLVHAKRWIVRWGLVFTAVIVVAWPALSLPARRYSLGYFTLWAAVAIAWGTVGSVVIILLPVAESWTTITKVCAGMFTNDAVYDRLDDVNLRLRAIMGAMPEAEKRYRQLHETEMHPAGTHPANDDDDDNNNNQMMHS
Take B1: the “stoichiometry N” value in “SEC” stood at 4.

B2: full-length Arabidopsis thaliana DUR3 fused with C-terminal GFP (natural protein, UniProt F4KD71 1-704, looked up)
chain: MATCPPFDFSTKYYDGDGGCQRQSSFFGGTTVLDQGVGYAVILGFGAFFAVFTSFLVWLEKRYVGARHTSEWFNTAGRNVKTGLIASVIVSQWTWAATILQSSNVAWQYGVSGPFWYASGATIQVLLFGVMAIEIKRKAPNAHTVCEIVKARWGTATHIVFLVFCLATNVVVTAMLLLGGSAVVNALTGVNLYAASFLIPLGVVVYTLAGGLKATFLASYVHSVIVHVALVVFVFLVYTSSKELGSPSVVYDRLKDMVAKSRSCTEPLSHHGQACGPVDGNFRGSYLTMLSSGGAVFGLINIVGNFGTVFVDNGYWVSAIAARPSSTHKGYLLGGLVWFAVPFSLATSLGLGALALDLPISKDEADRGLVPPATAIALMGKSGSLLLLTMLFMAVTSAGSSELIAVSSLFTYDIYRTYINPRATGRQILKISRCAVLGFGCFMGILAVVLNKAGVSLGWMYLAMGVLIGSAVIPIAFMLLWSKANAFGAILGATSGCVFGIITWLTTAKTQYGRVDLDSTGKNGPMLAGNLVAILTGGLIHAVCSLVRPQNYDWSTTREIKVVEAYASGDEDVDVPAEELREEKLRRAKAWIVKWGLVFTILIVVIWPVLSLPARVFSRGYFWFWAIVAIAWGTIGSIVIIGLPLVESWDTIKSVCMGMFTNDRVMKKLDDLNHRLRALTMAVPEAEKIYLLELEKTKKNDEEG
Turning to B2, in “SEC”, the “stoichiometry N” value was 4.
